Measured values as given in paper PMC4705658.

T1: Gbp2 RRM123 (Saccharomyces cerevisiae, UniProt P25555 122-427)
T1 sequence: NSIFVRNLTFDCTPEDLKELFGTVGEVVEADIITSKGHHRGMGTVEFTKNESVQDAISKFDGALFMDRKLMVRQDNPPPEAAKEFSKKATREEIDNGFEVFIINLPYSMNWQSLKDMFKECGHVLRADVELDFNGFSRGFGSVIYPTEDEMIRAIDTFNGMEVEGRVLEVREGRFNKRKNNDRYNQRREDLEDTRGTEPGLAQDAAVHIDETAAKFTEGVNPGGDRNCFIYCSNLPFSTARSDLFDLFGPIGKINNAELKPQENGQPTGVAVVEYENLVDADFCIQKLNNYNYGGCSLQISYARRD

T2: Hrb1 RRM2 (Saccharomyces cerevisiae, UniProt P38922 261-338)
T2 sequence: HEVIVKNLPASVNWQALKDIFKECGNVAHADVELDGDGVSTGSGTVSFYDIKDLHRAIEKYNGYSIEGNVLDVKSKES

T3: Gbp2 RRM12 (Saccharomyces cerevisiae, UniProt P25555 122-316)
T3 sequence: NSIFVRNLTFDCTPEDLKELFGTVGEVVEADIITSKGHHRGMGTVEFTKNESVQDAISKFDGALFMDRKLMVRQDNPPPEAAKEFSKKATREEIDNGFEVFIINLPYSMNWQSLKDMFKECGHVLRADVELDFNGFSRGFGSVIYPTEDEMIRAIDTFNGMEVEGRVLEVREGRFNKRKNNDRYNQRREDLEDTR

T4: Gbp2 RRM2 (Saccharomyces cerevisiae, UniProt P25555 219-316)
T4 sequence: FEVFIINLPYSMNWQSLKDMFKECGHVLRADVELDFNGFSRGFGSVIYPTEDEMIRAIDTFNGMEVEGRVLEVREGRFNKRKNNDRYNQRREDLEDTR

T5: Gbp2 RRM3 (Saccharomyces cerevisiae, UniProt P25555 330-427)
T5 sequence: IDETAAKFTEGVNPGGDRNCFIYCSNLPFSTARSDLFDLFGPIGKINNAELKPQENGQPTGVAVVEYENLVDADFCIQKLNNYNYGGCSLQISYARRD


Legend:
Gbp2 RRM123 = molecular target: T1, Gbp2 RRM123; test: fluorescence anisotropy
Hrb1 RRM2 = molecular target: T2, Hrb1 RRM2; test: fluorescence EMSA
Gbp2 RRM12 = molecular target: T3, Gbp2 RRM12; test: fluorescence anisotropy
Gbp2 RRM2 = molecular target: T4, Gbp2 RRM2; test: fluorescence anisotropy
Gbp2 RRM3 [1] = molecular target: T5, Gbp2 RRM3; test: fluorescence anisotropy
Gbp2 RRM3 [2] = molecular target: T5, Gbp2 RRM3; test: NMR HSQC titration

| Binder | Kd (Gbp2 RRM123) [µM] | binding result (Hrb1 RRM2) | Kd (Gbp2 RRM12) [µM] | Kd (Gbp2 RRM2) [µM] | binding result (Gbp2 RRM3 [1]) | binding result (Gbp2 RRM3 [2]) |
| --- | --- | --- | --- | --- | --- | --- |
| GTGGTGGGTGGGTGTGTGTGGGTGTGGTGGGTGTGTGGGTGTG (ssDNA) [TG-43] | ~0.059 | no binding | – | – | – | – |
| TTGGTGTT (ssDNA) [d(TTGGTGTT)] | 17 ± 2 | – | 24 ± 2 | 310 ± 90 | no binding | – |
| UUGGUGUU (ssRNA) [Selex RNA UUGGUGUU] | 3.3 ± 0.8 | – | 5.5 ± 0.7 | 54 ± 4 | no binding | – |
| AAAAAAAAAAAA (ssRNA) [A12] | – | – | – | – | – | no binding |
| UUUUUUUUUUUU (ssRNA) [U12] | – | – | – | – | – | no binding |
